Values of other authors in PMC4394549.

Target: Arginyl-tRNA synthetase (Methanothermobacter thermautotrophicus) (UniProt O27496)
UniProt O27496, sequence (O27496 whole entry): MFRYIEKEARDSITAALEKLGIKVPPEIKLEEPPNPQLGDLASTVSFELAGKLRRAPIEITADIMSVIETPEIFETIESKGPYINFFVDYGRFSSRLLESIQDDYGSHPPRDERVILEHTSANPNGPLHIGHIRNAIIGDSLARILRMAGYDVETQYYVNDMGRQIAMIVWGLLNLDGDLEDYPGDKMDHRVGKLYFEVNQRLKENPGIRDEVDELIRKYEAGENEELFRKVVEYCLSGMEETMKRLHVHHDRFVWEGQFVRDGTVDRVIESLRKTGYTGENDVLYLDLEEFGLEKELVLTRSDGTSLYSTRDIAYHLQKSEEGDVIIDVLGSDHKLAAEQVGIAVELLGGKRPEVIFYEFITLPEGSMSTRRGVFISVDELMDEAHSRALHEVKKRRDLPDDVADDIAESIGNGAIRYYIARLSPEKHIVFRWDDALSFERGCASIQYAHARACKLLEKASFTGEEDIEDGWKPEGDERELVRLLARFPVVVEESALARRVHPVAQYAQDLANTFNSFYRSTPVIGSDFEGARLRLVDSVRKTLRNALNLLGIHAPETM

Substance: Seryl-tRNA synthetase (from UniProt O27194)
- Kd: 250 nM
